Experiments:
hCTLA4 = target: T1, hCTLA4 (human, UniProt P16410 36-162, limits assumed); experiment: ELISA
T1 construct: bought

hPDL1 = target: T2, hPDL1 (human, UniProt Q9NZQ7 19-239); experiment: ELISA
T2 construct: bought
T2 sequence (Q9NZQ7 19-239 limits assumed): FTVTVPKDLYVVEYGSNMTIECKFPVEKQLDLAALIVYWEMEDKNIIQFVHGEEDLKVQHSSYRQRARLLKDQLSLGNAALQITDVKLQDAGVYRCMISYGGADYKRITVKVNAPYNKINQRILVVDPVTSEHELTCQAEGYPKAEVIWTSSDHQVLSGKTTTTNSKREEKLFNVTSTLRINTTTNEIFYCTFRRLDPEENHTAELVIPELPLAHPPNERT

T1 sequence (P16410 36-162 limits assumed): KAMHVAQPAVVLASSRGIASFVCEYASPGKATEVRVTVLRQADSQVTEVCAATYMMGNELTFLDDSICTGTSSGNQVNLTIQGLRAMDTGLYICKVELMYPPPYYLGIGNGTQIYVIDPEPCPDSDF

| EC50 (hCTLA4) [nM] | EC50 (hPDL1) [nM] | Binder |
| --- | --- | --- |
| 6.7 | 0.7 | PL-5 (bispecific antibody) chain 1: not shown chain 2: DIVLTQSPASLAVSPGQRATITCRASESVSIHGTHLMHWYQQKPGQPPKLLIYAASKLESGVPARFSGSGSGTDFTLTINPVEAEDTANYYCQQSFEDPLTFGQGTKLEIKGGGGSGIPPKIECLPIDISIDEGKVLTVASAFTGEPTPEVTWSTGGRKIHSQEQGRFHIENTDDSTTLTIKDVQKQDGGLYTLTLRNEFGSDSATVNIHIRSI chain 3: not shown chain 4: not shown |
| 7.3 | 0.5 | PL-7 (bispecific antibody) chain 1: not shown chain 2: DIVLTQSPASLAVSPGQRATITCRASESVSIHGTHLMHWYQQKPGQPPKLLIYAASKLESGVPARFSGSGSGTDFTLTINPVEAEDTANYYCQQSFEDPLTFGQGTKLEIKGGGGSGIPPKIECLPIDISIDEGKVLTVASCFTGEPTPEVTWSTGGRKIHSQEQGRFHIENTDDSTTLTIKDVQKQDGGLYTLTLRNEFGSDSATVNIHIRSI chain 3: not shown chain 4: not shown |
| 5.5 | 0.6 | PL-9 (bispecific antibody) chain 1: not shown chain 2: DIVLTQSPASLAVSPGQRATITCRASESVSIHGTHLMHWYQQKPGQPPKLLIYAASKLESGVPARFSGSGSGTDFTLTINPVEAEDTANYYCQQSFEDPLTFGQGTKLEIKGGGGSGIPPKIECLPIDISIDEGKCLTVASAFTGEPTPEVTWSTGGRKIHSQEQGRFHIENTDDSTTLTIKDVQKQDGGLYTLTLRNEFGSDSATVNIHIRSI chain 3: not shown chain 4: not shown |
| 34.9 | 1.7 | PL-16 (bispecific antibody) chain 1: not shown chain 2: DIVLTQSPASLAVSPGQRATITCRASESVSIHGTHLMHWYQQKPGQPPKLLIYAASKLESGVPARFSGSGSGTDFTLTINPVEAEDTANYYCQQSFEDPLTFGQGTKLEIKRTVASGIPPKIECLPIDISIDEGKVLTVASCFTGEPTPEVTWSTGGRKIHSQEQGRFHIENTDDSTTLTIKDVQKQDGGLYTLTLRNEFGSDSATVNIHIRSI chain 3: not shown chain 4: not shown |
| 6 | 1.3 | PL-14 (bispecific antibody) chain 1: not shown chain 2: DIVLTQSPASLAVSPGQRATITCRASESVSIHGTHLMHWYQQKPGQPPKLLIYAASKLESGVPARFSGSGSGTDFTLTINPVEAEDTANYYCQQSFEDPLTFGQGTKLEIKRTVASGIPPKIECLPIDISIDEGKVLTVASAFTGEPTPEVTWSTGGRKIHSQEQGRFHIENTDDSTTLTIKDVQKQDGGLYTLTLRNEFGSDSATVNIHIRSI chain 3: not shown chain 4: not shown |
| 5.6 | 0.6 | PL-11 (bispecific antibody) chain 1: not shown chain 2: DIVLTQSPASLAVSPGQRATITCRASESVSIHGTHLMHWYQQKPGQPPKLLIYAASKLESGVPARFSGSGSGTDFTLTINPVEAEDTANYYCQQSFEDPLTFGQGTKLEIKRTVASGIPPKIECLPIDISIDEGKVLTVASAFTGEPTPEVTWSTGGRKIHSQEQGRFHIENTDDSTTLTIKDVQKQDGGLYTLTLRNEFGSDSATVNIHIRSI chain 3: not shown chain 4: not shown |
| 6.9 | 0.6 | PL-10 (bispecific antibody) chain 1: not shown chain 2: DIVLTQSPASLAVSPGQRATITCRASESVSIHGTHLMHWYQQKPGQPPKLLIYAASKLESGVPARFSGSGSGTDFTLTINPVEAEDTANYYCQQSFEDPLTFGQGTKLEIKGGGGSGIPPKIECLPIDISIDEGKVLTVASCFTGEPTPEVTWSTGGRKIHSQEQGRFHIENTDDSTTLTIKDVQKQDGGLYTLTLRNEFGSDSATVNIHIRSI chain 3: not shown chain 4: not shown |
| 5.3 | 0.8 | PL-6 (bispecific antibody) chain 1: not shown chain 2: DIVLTQSPASLAVSPGQRATITCRASESVSIHGTHLMHWYQQKPGQPPKLLIYAASKLESGVPARFSGSGSGTDFTLTINPVEAEDTANYYCQQSFEDPLTFGQGTKLEIKGGGGSGIPPKIECLPIDISIDEGKCLTVASAFTGEPTPEVTWSTGGRKIHSQEQGRFHIENTDDSTTLTIKDVQKQDGGLYTLTLRNEFGSDSATVNIHIRSI chain 3: not shown chain 4: not shown |
| 4.4 | 0.5 | PL-13 (bispecific antibody) chain 1: not shown chain 2: DIVLTQSPASLAVSPGQRATITCRASESVSIHGTHLMHWYQQKPGQPPKLLIYAASKLESGVPARFSGSGSGTDFTLTINPVEAEDTANYYCQQSFEDPLTFGQGTKLEIKRTVASGIPPKIECLPIDISIDEGKVLTVASCFTGEPTPEVTWSTGGRKIHSQEQGRFHIENTDDSTTLTIKDVQKQDGGLYTLTLRNEFGSDSATVNIHIRSI chain 3: not shown chain 4: not shown |
| 8 | 0.5 | PL-12 (bispecific antibody) chain 1: not shown chain 2: DIVLTQSPASLAVSPGQRATITCRASESVSIHGTHLMHWYQQKPGQPPKLLIYAASKLESGVPARFSGSGSGTDFTLTINPVEAEDTANYYCQQSFEDPLTFGQGTKLEIKRTVASGIPPKIECLPIDISIDEGKCLTVASAFTGEPTPEVTWSTGGRKIHSQEQGRFHIENTDDSTTLTIKDVQKQDGGLYTLTLRNEFGSDSATVNIHIRSI chain 3: not shown chain 4: not shown |
| 6.7 | 1.6 | PL-18 (bispecific antibody) chain 1: not shown chain 2: DIVLTQSPASLAVSPGQRATITCRASESVSIHGTHLMHWYQQKPGQPPKLLIYAASKLESGVPARFSGSGSGTDFTLTINPVEAEDTANYYCQQSFEDPLTFGQGTKLEIKRTVASGIPPKIECLPIDISIDEGKCLTVASAFTGEPTPEVTWSTGGRKIHSQEQGRFHIENTDDSTTLTIKDVQKQDGGLYTLTLRNEFGSDSATVNIHIRSI chain 3: not shown chain 4: not shown |
| 6.2 | 1.4 | PL-17 (bispecific antibody) chain 1: not shown chain 2: DIVLTQSPASLAVSPGQRATITCRASESVSIHGTHLMHWYQQKPGQPPKLLIYAASKLESGVPARFSGSGSGTDFTLTINPVEAEDTANYYCQQSFEDPLTFGQGTKLEIKRTVASGIPPKIECLPIDISIDEGKVLTVASAFTGEPTPEVTWSTGGRKIHSQEQGRFHIENTDDSTTLTIKDVQKQDGGLYTLTLRNEFGSDSATVNIHIRSI chain 3: not shown chain 4: not shown |
| 6.5 | 1.6 | PL-19 (bispecific antibody) chain 1: not shown chain 2: DIVLTQSPASLAVSPGQRATITCRASESVSIHGTHLMHWYQQKPGQPPKLLIYAASKLESGVPARFSGSGSGTDFTLTINPVEAEDTANYYCQQSFEDPLTFGQGTKLEIKRTVASGIPPKIECLPIDISIDEGKVLTVASCFTGEPTPEVTWSTGGRKIHSQEQGRFHIENTDDSTTLTIKDVQKQDGGLYTLTLRNEFGSDSATVNIHIRSI chain 3: not shown chain 4: not shown |
| 3.2 | 1.4 | PL-15 (bispecific antibody) chain 1: not shown chain 2: DIVLTQSPASLAVSPGQRATITCRASESVSIHGTHLMHWYQQKPGQPPKLLIYAASKLESGVPARFSGSGSGTDFTLTINPVEAEDTANYYCQQSFEDPLTFGQGTKLEIKRTVASGIPPKIECLPIDISIDEGKCLTVASAFTGEPTPEVTWSTGGRKIHSQEQGRFHIENTDDSTTLTIKDVQKQDGGLYTLTLRNEFGSDSATVNIHIRSI chain 3: not shown chain 4: not shown |
| 14.5 | 1.4 | PL-8 (bispecific antibody) chain 1: not shown chain 2: DIVLTQSPASLAVSPGQRATITCRASESVSIHGTHLMHWYQQKPGQPPKLLIYAASKLESGVPARFSGSGSGTDFTLTINPVEAEDTANYYCQQSFEDPLTFGQGTKLEIKGGGGSGIPPKIECLPIDISIDEGKVLTVASAFTGEPTPEVTWSTGGRKIHSQEQGRFHIENTDDSTTLTIKDVQKQDGGLYTLTLRNEFGSDSATVNIHIRSI chain 3: not shown chain 4: not shown |

From US20250376519A1 (JIANGSU HENGRUI PHARMACEUTICALS, published 2025)
